Experimental data as given in US20170174769A1 (Regeneron, published 2017).

Key:
[1] = target: T1, full-length human FGFR1c on HEK293/hFGFR1c/SRE-luc cells (human, UniProt P11362 22-822); assay: FACS on stable HEK293 cells, 33 nM
T1 construct: amino acids 1-733 of NP_075593
Experimental: (§1) For the FACS analysis, HEK293 parental, HEK293/hFGFR1c, HEK293/hFGFR1c/hKLB, and HEK293/mFGFR1c/mKLB cells were dissociated and plated onto 96-well v-bottom plates at 0.5×10⁶ cells/well in 2% FBS/PBS. […] Control mAb2 was tested at a concentration of 965 nM. After primary protein incubation cells were washed and incubated with 3.75 μg/mL fluorescently conjugated secondary antibodies for 30 minutes at 4° C. Cells were filtered and analyzed on Accuri™ 6 Flow Cytometer. Unstained and secondary antibody alone controls were also tested for all cell lines. The results were analyzed using FlowJo version 9.52 software and geometric mean (Geom. Mean) of fluorescence for viable cells were determined. Geom. mean of fluorescence for each antibody was then normalized to Geom. mean of unstained cells to obtain relative binding of antibody (binding ratios) per each cell type.

[2] = target: T2, human KLB and human FGFR1c co-expressed on HEK293/hKLB/hFGFR1c/SRE-luc cells (human, UniProt Q86Z14 1-1044; P11362 22-822); assay: FACS on stable HEK293 cells, 33 nM
T2 construct: two receptors co-expressed on one cell line; also called KLB/FGFR1c coreceptor; FGF21R
T2 sequence (Q86Z14 whole entry, chain 1 of 2): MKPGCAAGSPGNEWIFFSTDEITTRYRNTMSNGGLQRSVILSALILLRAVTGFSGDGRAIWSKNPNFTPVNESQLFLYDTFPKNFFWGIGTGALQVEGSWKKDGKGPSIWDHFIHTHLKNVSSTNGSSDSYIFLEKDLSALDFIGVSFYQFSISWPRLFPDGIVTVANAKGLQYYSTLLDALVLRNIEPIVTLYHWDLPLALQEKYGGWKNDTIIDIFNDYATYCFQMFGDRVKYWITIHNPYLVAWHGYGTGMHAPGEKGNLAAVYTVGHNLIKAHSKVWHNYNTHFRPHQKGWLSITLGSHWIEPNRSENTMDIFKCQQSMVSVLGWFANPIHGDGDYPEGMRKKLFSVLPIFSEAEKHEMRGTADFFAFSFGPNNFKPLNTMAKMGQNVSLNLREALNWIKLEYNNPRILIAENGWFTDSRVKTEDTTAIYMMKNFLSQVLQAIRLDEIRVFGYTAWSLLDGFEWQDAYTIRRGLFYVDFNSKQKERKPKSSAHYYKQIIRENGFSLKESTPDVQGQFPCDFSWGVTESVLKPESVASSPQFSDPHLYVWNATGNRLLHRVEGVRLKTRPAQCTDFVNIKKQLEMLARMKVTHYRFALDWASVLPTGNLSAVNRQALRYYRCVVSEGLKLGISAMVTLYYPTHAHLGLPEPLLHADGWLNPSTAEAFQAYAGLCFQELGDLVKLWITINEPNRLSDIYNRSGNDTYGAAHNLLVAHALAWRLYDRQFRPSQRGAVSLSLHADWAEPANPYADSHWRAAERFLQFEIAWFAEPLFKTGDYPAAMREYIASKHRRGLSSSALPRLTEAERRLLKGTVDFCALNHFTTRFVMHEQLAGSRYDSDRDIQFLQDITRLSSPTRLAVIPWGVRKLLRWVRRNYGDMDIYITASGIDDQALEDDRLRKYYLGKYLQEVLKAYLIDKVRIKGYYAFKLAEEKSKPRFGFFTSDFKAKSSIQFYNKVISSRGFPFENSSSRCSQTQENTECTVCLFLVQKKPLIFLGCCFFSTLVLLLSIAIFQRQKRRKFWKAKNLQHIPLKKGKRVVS
T2 sequence (P11362 other isoform, or with tags, fused parts or gaps limits assumed, chain 2 of 2): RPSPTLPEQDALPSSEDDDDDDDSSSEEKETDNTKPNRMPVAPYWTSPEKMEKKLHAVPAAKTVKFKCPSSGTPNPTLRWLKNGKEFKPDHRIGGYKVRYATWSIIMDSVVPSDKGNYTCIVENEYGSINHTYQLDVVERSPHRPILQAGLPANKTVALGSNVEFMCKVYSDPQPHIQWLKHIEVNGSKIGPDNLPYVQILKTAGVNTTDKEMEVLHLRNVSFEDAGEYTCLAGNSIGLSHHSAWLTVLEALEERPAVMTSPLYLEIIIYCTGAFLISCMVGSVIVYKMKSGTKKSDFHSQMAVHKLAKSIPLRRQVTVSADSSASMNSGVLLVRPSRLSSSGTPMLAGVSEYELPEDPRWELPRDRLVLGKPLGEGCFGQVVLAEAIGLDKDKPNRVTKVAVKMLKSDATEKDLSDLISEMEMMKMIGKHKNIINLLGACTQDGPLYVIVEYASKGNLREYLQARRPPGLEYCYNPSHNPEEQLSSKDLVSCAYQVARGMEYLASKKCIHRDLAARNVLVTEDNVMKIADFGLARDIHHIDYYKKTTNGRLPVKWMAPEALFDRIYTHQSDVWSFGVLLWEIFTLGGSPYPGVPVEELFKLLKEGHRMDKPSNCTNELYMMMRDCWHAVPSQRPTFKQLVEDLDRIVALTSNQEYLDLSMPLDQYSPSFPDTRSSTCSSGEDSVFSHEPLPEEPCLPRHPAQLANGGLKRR
Experimental: as §1

[3] = target: cell-surface human FGFR1c (amino acids 1-731 of NP_075594) with cell-surface human KLB on … (human, UniProt P11362 22-822); assay: cell-based or functional assay
Sequence of cell-surface human FGFR1c (amino acids 1-731 of NP_075594) with cell-surface human KLB on … (P11362 22-822, chain 1 of 2): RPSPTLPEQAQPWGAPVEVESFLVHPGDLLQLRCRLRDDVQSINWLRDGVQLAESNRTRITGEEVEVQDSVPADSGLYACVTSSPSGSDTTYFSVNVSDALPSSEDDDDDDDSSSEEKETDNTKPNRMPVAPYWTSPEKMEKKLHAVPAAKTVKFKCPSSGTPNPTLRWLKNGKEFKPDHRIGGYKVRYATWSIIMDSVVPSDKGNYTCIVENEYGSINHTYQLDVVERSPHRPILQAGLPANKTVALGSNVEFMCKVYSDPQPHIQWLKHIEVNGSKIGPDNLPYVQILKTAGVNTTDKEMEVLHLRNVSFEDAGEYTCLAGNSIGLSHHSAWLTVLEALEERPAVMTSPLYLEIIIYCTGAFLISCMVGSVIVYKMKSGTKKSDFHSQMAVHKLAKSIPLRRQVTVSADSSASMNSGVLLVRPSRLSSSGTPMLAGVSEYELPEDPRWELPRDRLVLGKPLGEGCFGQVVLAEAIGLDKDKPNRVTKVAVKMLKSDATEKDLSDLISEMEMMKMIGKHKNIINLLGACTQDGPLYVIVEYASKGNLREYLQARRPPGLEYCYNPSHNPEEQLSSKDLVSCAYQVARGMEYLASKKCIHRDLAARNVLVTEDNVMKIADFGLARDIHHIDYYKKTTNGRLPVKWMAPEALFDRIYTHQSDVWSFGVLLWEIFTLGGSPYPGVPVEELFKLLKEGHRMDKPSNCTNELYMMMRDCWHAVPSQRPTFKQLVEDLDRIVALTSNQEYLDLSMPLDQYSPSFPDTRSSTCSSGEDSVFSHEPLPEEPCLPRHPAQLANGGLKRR
Sequence of cell-surface human FGFR1c (amino acids 1-731 of NP_075594) with cell-surface human KLB on … (chain, as listed by the source, chain 2 of 2): as the sequence (Q86Z14 whole entry, chain 1 of 2) above

[4] = target: T1, full-length human FGFR1c on …; assay: FACS on stable HEK293 cells, 965 nM
Experimental: as §1

[5] = target: T2, human KLB and human FGFR1c co-expressed …; assay: FACS on stable HEK293 cells, 965 nM
Experimental: as §1

T1 sequence (P11362 other isoform, or with tags, fused parts or gaps limits assumed): as the sequence (P11362 other isoform, or with tags, fused parts or gaps limits assumed, chain 2 of 2) above

MFI Ratio to unstained cells [1]: 2 fold | MFI Ratio to unstained cells [2]: 2 fold | % Activation [3]: 0.7% | EC50, SRE-luc activation [3]: 47 nM | MFI Ratio to unstained cells [4]: 5 fold | MFI Ratio to unstained cells [5]: 5 fold
B1: H1H8900P (antibody, V domains shown)
VH: QVQLVESGGGVVQPGRSLRLSCVASGFTFSSYGMHWVRQAPGKGLEWVAVISFDGSNKYYADSVKGRFTISRDNSKNTLYLQMNSLRPADTAVYYCAKDRSNYYYFGMDVWGQGTTVTVSS
VL: DIVMTQTPLSLPVTPGEPASISCRSSQSLLDSDDGNTYLDWYLQKPGQSPQLLIYTLSYRASGVPDRFSGSGSGTDFTLKISRVEAEDVGVYYCMQRIEFPLTFGGGTKVEIK
notes: H1H Fc prefix (human Fc)
